# According to patent publication US20100111958A1 (published 2010):
# B1: 59R1 Fab (Fab, V domains shown)
# VH: QVQLVESGGGLVQPGGSLRLSCAASGFTFSSSGMSWVRQAPGKGLEWVSVIASSGSNTYYADSVKGRFTISRDNSKNTLYLQMNSLRAEDTAVYYCARGIFFAIWGQGTLVTVSS
# VL: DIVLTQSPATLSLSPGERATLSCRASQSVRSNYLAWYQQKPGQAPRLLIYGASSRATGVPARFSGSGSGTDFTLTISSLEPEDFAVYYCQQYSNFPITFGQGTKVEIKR
# notes: Human Fab from a synthetic phage library; also called Clone 1; clone 1
# B2: 59R5 antibody (antibody, human IgG2, kappa, V domains shown)
# VH: EVQLVESGGGLVQPGGSLRLSCAASGFTFSSSGMSWVRQAPGKGLEWVSVIASSGSNTYYADSVKGRFTISRDNSKNTLYLQMNSLRAEDTAVYYCARSIFYTTWGQGTLVTVSS
# VL: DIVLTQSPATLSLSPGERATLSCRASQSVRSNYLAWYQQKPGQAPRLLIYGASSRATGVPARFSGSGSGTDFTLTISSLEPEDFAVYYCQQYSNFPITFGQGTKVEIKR
# notes: also called anti-Notch2/3 antibody 59R5; 59R5 IgG2
# Experiments:
# [1] = molecular target: T1, recombinant Notch2 (EGF1-12) Fc fusion protein (human); experiment: phage selection and ELISA screen on passively immobilized Notch2 (EGF1-12) Fc fusion
# T1 construct: passively immobilised for phage selection and ELISA screen; also called Notch2 Fc fusion protein
# T1 sequence (chain, as listed by the source limits assumed): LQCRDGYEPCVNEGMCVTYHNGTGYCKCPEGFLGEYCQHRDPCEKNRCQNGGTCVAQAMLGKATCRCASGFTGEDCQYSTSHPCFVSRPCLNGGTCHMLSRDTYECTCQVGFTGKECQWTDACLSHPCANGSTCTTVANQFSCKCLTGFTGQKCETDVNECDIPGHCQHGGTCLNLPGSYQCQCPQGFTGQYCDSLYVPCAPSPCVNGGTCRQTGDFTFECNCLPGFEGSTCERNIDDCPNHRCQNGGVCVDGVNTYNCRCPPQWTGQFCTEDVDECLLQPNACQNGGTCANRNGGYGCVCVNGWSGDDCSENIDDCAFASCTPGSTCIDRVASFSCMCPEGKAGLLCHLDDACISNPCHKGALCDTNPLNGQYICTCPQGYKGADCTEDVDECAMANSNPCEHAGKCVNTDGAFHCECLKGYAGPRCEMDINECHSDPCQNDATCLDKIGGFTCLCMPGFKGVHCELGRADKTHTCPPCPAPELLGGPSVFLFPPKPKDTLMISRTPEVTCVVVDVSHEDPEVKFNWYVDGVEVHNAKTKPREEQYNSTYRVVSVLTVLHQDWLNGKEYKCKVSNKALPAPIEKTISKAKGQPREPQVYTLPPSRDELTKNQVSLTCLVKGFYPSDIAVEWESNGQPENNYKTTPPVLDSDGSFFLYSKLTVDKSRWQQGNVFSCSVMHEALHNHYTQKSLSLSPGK
# Protocol: Briefly, 2×10¹³ Fab displaying phage particles were incubated with a passively immobilized, recombinant Notch2 Fc fusion protein (SEQ ID NO:21) comprising the extracellular ligand binding site of Notch2 and surrounding EGF repeats (EGF1-12) in round one. The non-specific phage were washed off, and then the specific phage were eluted with DTT. The eluted output was used to infect TG1 F+bacteria, rescued with helper phage, and then Fab display induced with IPTG (0.25 mM). This process was repeated for two additional rounds and then round three was screened in ELISA against passively immobilized recombinant Notch2 (EGF1-12) Fc fusion (5 μg/ml).
# [2] = molecular target: T2, human Notch1 with residues 382-386 mutated to the corresponding human Notch2 residues (385-389), full length, … (human, UniProt P46531 19-2555); experiment: FACS on transiently transfected HEK 293 cells
# T2 construct: G384 is the same in both; also called mutant hNotch1; mutated Notch1
# T2 sequence (P46531 other isoform, or with tags, fused parts or gaps limits assumed, change not shown): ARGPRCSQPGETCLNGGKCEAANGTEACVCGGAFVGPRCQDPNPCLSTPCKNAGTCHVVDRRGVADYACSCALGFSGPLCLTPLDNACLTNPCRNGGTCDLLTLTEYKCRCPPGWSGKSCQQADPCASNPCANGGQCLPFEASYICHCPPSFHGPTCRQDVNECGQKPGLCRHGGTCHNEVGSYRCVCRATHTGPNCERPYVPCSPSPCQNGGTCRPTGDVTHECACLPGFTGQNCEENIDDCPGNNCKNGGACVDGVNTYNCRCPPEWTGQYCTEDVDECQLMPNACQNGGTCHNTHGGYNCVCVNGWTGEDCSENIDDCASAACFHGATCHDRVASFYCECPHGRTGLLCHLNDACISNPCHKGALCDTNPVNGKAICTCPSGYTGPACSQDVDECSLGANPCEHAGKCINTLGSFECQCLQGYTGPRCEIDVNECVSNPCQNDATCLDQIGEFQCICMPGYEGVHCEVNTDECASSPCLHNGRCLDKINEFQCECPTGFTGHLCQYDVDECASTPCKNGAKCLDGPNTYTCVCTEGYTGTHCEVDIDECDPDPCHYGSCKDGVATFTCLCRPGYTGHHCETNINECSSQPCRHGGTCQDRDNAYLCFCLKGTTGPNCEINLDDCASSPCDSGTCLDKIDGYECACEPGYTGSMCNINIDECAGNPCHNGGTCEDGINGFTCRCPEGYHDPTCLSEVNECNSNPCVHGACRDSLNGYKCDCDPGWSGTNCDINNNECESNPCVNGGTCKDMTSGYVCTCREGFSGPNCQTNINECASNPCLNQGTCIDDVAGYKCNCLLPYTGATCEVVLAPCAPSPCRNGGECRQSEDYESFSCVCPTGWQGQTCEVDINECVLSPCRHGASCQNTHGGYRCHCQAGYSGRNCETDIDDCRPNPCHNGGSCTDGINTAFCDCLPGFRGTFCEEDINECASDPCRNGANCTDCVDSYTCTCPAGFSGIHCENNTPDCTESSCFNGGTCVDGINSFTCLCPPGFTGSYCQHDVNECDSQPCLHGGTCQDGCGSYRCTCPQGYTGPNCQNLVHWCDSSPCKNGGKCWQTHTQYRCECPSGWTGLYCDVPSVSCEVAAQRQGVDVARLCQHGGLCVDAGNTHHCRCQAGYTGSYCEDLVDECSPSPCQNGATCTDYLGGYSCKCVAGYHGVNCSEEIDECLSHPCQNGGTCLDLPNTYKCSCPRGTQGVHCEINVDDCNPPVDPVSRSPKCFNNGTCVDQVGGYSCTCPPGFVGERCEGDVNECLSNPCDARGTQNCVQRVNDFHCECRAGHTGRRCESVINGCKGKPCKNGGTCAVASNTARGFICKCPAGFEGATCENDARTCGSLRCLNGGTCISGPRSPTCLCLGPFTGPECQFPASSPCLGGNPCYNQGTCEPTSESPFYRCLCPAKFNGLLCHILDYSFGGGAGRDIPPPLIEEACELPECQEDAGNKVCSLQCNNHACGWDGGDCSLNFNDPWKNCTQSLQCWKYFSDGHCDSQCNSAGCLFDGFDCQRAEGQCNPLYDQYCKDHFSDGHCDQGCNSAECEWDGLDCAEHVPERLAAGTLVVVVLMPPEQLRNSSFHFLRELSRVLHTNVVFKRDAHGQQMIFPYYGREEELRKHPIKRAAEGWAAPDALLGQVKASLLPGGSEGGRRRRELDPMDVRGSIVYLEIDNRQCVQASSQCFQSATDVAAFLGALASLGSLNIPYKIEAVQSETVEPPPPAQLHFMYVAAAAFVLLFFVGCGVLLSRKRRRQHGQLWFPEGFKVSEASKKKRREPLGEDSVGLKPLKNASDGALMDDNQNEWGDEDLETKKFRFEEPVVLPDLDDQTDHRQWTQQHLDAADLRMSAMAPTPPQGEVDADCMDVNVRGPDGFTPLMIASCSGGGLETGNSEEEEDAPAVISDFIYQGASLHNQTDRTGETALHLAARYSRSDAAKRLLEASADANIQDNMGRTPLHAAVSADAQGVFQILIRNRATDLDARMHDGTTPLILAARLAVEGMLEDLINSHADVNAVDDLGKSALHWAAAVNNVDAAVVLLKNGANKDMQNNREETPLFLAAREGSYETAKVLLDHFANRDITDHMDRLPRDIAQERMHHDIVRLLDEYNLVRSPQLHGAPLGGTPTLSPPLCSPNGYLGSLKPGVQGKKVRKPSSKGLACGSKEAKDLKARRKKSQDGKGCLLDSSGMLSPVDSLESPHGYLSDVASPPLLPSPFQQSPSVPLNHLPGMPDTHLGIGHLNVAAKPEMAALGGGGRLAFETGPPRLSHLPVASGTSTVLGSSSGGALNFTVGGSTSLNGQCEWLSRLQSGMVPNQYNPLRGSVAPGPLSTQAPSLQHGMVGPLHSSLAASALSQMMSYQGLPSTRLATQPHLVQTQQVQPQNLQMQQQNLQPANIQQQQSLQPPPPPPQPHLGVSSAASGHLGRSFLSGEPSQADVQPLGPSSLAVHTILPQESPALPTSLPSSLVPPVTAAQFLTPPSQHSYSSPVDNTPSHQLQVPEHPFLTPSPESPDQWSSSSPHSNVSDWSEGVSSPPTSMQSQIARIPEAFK
# Protocol: FIG. 15. In vitro characterization of 59R5. […] PC3 tumor cells were transiently transfected with human or mouse Notch receptor (hN2, human Notch2; mN2, murine Notch2; hN3, human Notch3; mN3, murine Notch3) and GFP inducible reporter construct. Transfected cells were incubated with different concentrations of antibody 59R1 and 59R5 in the presence of passively immobilized DLL4 Fc. […] Cells were also co-transfected with a plasmid encoding green fluorescent protein (GFP) to mark those cells that received transfected plasmid. Cells were incubated with 59R1 or 59R5 and fluorescent secondary antibody and then examined by FACS.
# The binding epitope of 59R5 was determined. As was described in Example 3 for analysis of antibody 59R1, several point mutants were created within full-length Notch1, converting residues within EGF10 to the corresponding amino acids in human Notch 2. Mutants in full-length Notch sequences were generated by QuikChange® mutagenesis (Stratagene) and verified by sequencing. […] Cells were also co-transfected with a plasmid encoding green fluorescent protein (GFP) to mark those cells that received transfected plasmid. Cells were incubated with 59R1 or 59R5 and fluorescent secondary antibody and then examined by FACS. 59R1 and 59R5 were detected by PE-conjugated goat anti-human Fc gamma specific antibody (Jackson Immunochemicals, #109-1,6-170).
Binder,binding result [1],binding result [2]
B1,binds,–
B2,–,binds
